Results taken from patent US20240034762A1 (YALE UNIVERSITY, published 2024).
No end group written: not given here.

Target: T1, soluble extracellular domain of human α-Klotho (aa 1-980) fused to a 6xHis tag (human, UniProt Q9UEF7 34-980)
T1 construct: Secreted from HEK293 EBNA cells; also called sKLA; soluble α-Klotho
T1 sequence: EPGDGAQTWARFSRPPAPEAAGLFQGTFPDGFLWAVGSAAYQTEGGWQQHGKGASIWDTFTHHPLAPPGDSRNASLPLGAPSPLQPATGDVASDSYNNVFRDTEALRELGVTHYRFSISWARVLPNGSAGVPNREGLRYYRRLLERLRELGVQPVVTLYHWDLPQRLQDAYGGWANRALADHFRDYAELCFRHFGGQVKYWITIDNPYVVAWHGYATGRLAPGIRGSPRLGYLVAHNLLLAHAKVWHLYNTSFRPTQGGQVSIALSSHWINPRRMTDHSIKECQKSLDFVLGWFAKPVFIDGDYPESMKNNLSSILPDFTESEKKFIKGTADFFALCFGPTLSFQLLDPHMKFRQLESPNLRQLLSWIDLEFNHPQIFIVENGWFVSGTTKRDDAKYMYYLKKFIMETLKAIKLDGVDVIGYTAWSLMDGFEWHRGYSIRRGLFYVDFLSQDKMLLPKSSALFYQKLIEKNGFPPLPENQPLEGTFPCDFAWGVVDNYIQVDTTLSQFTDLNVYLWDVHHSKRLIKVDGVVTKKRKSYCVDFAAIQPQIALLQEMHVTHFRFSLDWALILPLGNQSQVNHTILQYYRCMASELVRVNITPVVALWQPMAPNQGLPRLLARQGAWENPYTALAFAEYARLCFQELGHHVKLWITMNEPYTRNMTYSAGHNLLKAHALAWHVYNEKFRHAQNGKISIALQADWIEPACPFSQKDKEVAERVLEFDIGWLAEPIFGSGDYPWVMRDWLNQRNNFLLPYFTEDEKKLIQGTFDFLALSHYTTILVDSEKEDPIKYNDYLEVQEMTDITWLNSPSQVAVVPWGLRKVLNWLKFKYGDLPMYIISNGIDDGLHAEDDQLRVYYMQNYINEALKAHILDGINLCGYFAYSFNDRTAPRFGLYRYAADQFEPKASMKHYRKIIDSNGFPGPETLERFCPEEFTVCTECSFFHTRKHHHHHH
Assay: BLI; FLAG-tagged FGF23 captured by anti-FLAG M2 on anti-mouse Fc sensors, sKLA 6.25-200 nM as analyte, 1:1 fit
Procedure: FIG. 10A: BLI sensorgrams of binding of FGF23-WT, FGF23-CS, FGF23 D188A, and FGF23-CS D188A to sKLA. Biosensors coated with anti-mouse-Fc antibody was used to immobilize anti-Flag antibody followed by capturing Flag-tagged FGF23-WT or FGF23-CS. Biosensors were then dipped into solutions containing a series of concentrations of sKLA (200, 100, 50, 25, 12.5, and 6.25 nM). The resulting sensorgrams were fitted with a 1:1 ligand:receptor binding model to calculate kinetic parameters and dissociation constants. FIGS. 10B-10C: HEK293 cells stably expressing FGFR1c together with α-Klotho were left unstimulated or stimulated with increasing concentrations of FGF23-WT or FGF23-CS mutant, as indicated, for 10 minutes at 37° C. Cell lysates were subjected to SDS-PAGE and analyzed for serine phosphorylation of FGFR1, tyrosine phosphorylation of FRS2 and for MAPK activation by immunoblotting with anti-FGFR1-pS, anti-pFRS2 and anti-pMAPK antibodies, respectively and with anti-MAPK as a control. FIG. 10D: Schematic diagram depicting the bivalency of the C-terminal tail of FGF23 binding to α-Klotho.
Kinetic parameters and dissociation constants of sKLA binding to the various forms of full length FGF23 or GST-fused C-terminal fragments of FGF23 were studied using Bio-Layer Interferometry (BLI). Octet RED96 system (Pall ForteBio) equipped with anti-mouse IgG Fc (AMC) biosensors was used to study interactions between α-Klotho and FLAG-tagged FGF23. Biosensor tips were loaded with anti-FLAG M2 antibody (Millipore Sigma) at 5 μg/ml for 2 min, washed in BLI buffer (25 mM HEPES, 150 mM NaCl, pH 7.5, 0.002% Tween-20, 1 mg/mL BSA) for 60 s, and then loaded with FLAG-tagged FGF23 at 5 μg/ml for 4 min. Alternatively, anti-GST biosensor tips were loaded with 5 ug/ml GST fused with various FGF23 C-terminal fragments for 15 s. Subsequently, ligand-loaded sensor tips were dipped into microplate wells containing different sKLA concentrations, ranging from 6.25 nM to 200 nM in 2-fold dilutions of BLI buffer. After each binding cycle the sensor tips were regenerated with 10 mM glycine (pH 1.5). The collected data were referenced using a parallel buffer control subtraction, and sensograms were fitted globally to a 1:1 Langmuir binding model using ForteBio Data Analysis 10.0 software provided by the manufacturer.

Row | Kd [nM] | koff [s⁻¹] | kon [M⁻¹ s⁻¹] | Binder
1 | 13 | 0.0036 | 280000 | FLAG-tagged human FGF23 D188A mutant expressed in Expi293F cells (ligand) DYKDDDDKYPNASPLLGSSWGGLIHLYTATARNSYHLQIHKNGHVDGAPHQTIYSALMIRSEDAGFVVITGVMSRRYLCMDFRGNIFGSHYFDPENCRFQHQTLENGYDVYHSPQYHFLVSLGAAKAAFLPGMNPPPYSQFLSRRNEIPLIHFNTPIPRQHTQSAEDDSERAPLNVLKPRARMTPAPASCSQELPSAEDNSPMASDPLGVVRGGRVNTHAGGTGPEGCRPFAKFI
2 | 18 | 0.0044 | 250000 | FLAG-tagged human FGF23 C206S/C244S/D188A mutant expressed in Expi293F cells (ligand, also called FGF23-CS D188A) DYKDDDDKYPNASPLLGSSWGGLIHLYTATARNSYHLQIHKNGHVDGAPHQTIYSALMIRSEDAGFVVITGVMSRRYLCMDFRGNIFGSHYFDPENCRFQHQTLENGYDVYHSPQYHFLVSLGAAKAAFLPGMNPPPYSQFLSRRNEIPLIHFNTPIPRQHTQSAEDDSERAPLNVLKPRARMTPAPASSSQELPSAEDNSPMASDPLGVVRGGRVNTHAGGTGPEGSRPFAKFI
3 | 14 | 0.0034 | 260000 | FLAG-tagged human FGF23 (aa 25-251) expressed in Expi293F cells (ligand, O-linked glycosylation (sites not given); Cys206-Cys244 disulfide bridge, also called FGF23-WT; mFGF23-WT) DYKDDDDKYPNASPLLGSSWGGLIHLYTATARNSYHLQIHKNGHVDGAPHQTIYSALMIRSEDAGFVVITGVMSRRYLCMDFRGNIFGSHYFDPENCRFQHQTLENGYDVYHSPQYHFLVSLGAAKAAFLPGMNPPPYSQFLSRRNEIPLIHFNTPIPRQHTQSAEDDSERDPLNVLKPRARMTPAPASCSQELPSAEDNSPMASDPLGVVRGGRVNTHAGGTGPEGCRPFAKFI
4 | 18 | 0.0042 | 230000 | FLAG-tagged human FGF23 C206S/C244S mutant expressed in Expi293F cells (ligand, O-linked glycosylation (sites not given), also called FGF23-CS; mFGF23-CS) DYKDDDDKYPNASPLLGSSWGGLIHLYTATARNSYHLQIHKNGHVDGAPHQTIYSALMIRSEDAGFVVITGVMSRRYLCMDFRGNIFGSHYFDPENCRFQHQTLENGYDVYHSPQYHFLVSLGAAKAAFLPGMNPPPYSQFLSRRNEIPLIHFNTPIPRQHTQSAEDDSERDPLNVLKPRARMTPAPASSSQELPSAEDNSPMASDPLGVVRGGRVNTHAGGTGPEGSRPFAKFI

Target: T2, full-length human α-Klotho with a C-terminal HA-tag on HEK293 cells stably co-expressing FGFR1c (human) (UniProt Q9UEF7)
T2 sequence: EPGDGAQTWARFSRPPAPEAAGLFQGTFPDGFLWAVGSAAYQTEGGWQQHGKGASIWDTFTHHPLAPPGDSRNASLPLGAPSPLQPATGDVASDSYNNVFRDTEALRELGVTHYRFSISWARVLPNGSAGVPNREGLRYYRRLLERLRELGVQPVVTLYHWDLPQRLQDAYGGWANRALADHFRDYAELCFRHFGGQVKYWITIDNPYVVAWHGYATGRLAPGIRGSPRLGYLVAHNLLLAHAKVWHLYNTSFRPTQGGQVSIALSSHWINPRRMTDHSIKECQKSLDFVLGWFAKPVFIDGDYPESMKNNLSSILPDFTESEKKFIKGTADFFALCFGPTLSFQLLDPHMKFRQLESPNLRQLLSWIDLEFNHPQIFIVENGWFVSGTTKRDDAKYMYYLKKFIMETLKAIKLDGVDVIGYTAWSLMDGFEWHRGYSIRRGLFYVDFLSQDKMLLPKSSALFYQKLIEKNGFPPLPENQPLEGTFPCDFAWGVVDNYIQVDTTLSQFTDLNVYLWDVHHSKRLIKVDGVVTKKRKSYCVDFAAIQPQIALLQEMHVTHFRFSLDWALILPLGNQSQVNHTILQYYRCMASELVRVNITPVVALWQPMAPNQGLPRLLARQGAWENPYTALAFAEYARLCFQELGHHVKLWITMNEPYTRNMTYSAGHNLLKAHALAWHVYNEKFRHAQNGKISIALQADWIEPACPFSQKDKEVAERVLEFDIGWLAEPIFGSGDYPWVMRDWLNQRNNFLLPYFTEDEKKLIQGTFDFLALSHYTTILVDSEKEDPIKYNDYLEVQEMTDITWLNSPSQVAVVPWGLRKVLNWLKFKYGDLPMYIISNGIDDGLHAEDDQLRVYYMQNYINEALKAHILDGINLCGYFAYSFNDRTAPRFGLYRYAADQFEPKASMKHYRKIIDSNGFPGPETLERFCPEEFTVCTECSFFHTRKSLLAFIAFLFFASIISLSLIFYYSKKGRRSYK
Assay: cell-based or functional assay

Row | complete inhibition of FGF23-induced MAPK stimulation in HEK293 cells co-expressing α-Klotho and FGFR1c [nM] | Binder
5 | 100 to 250 | {human IgG1 Fc (aa 223-449)}-SAEDNSPMASDPLGVVRGGRVNTHAGGTGPEG (Fc fusion, not shown: a dimerising Fc or GST, also: R2 given as aa 212-243 or S212-T239) [human IgG1 Fc fused to R2 of human FGF23]
